Test results published in US20260042847A1, “CYSTEINE ENGINEERED ANTIBODY CONSTRUCTS, CONJUGATES AND METHODS OF USE” (ZYMEWORKS INC., priority 2021, published 2026).

Tested on: mid c-Met expressing colorectal cancer xenograft model HT-29
Test: In vivo anti-tumor activity, HT-29 xenograft
Parameters: species or system balb/c nude mice
Conditions: single IV dose, toxin-matched 6 (DAR1), 3 (DAR2), 2 (DAR3), 1.5 (DAR4) mg/kg, FIG. 7A
Experimental: For the HT-29 model, tumor cell suspensions (3×10^6 cells in 0.1 ml PBS) were implanted subcutaneously into balb/c nude mice. When mean tumor volume reached ˜160 mm3, the animals were randomly assigned to groups (n=8 per group) and treated with a single IV dose of test articles as shown in Table 14.1. Dose levels of ADCs at different DARs were molar matched to toxin. Tumor volume and body weight were measured twice weekly with a study duration of 32 days.

B1: v17427-MCvcPABC-MMAE (conjugate, chains of the INN, looked up)
VH: QVQLVQSGAEVKKPGASVKVSCKASGYIFTAYTMHWVRQAPGQGLEWMGWIKPNNGLANYAQKFQGRVTMTRDTSISTAYMELSRLRSDDTAVYYCARSEITTEFDYWGQGTLVTVSS
VL: DIVMTQSPDSLAVSLGERATINCKSSESVDSYANSFLHWYQQKPGQPPKLLIYRASTRESGVPDRFSGSGSGTDFTLTISSLQAEDVAVYYCQQSKEDPLTFGGGTKVEIK
modifications: IgG, HetFc MC-vc-PABC-MMAE
tumor growth inhibition compared to vehicle: did not significantly inhibit tumor growth
